Consider 21 variants from the RNAGym collection of RNA variant scans (doi:10.1073/pnas.2313332121).

First the molecules themselves.
B1: TPR t1 (parent)
chain: GACCAAUCUGCCCUCAGAGCUCGAGAACAUCUUCGGAUGCAGAGGAGGCAGGCUUCGGUGGCGCGAUAGCGCCAACGUCCUCAACCUCCAAUGCAUCCCACCACAUGAUGAUGCCUGAAGAGCCUUGGUUUUUUG

This data set covers variants of B1. The experiment in a line: polymerase ribozyme fitness, log enrichment relative to wild type (log ratio); higher = more active; in vitro selection for triplet polymerase activity. The method, boiled down:
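Libraries of mutants in each subunit of a heterodimeric triplet polymerase ribozyme were generated by PCR and transcribed. In triplicate, each went through one in vitro selection round: annealing with biotinylated primer, partner subunit and triplets; frozen incubation at −7 °C; gel excision of extended constructs; streptavidin-bead capture; RT-PCR. Fitness, taken from Illumina sequencing of input and output libraries, is the logarithm of a genotype's enrichment over wild-type enrichment, averaged across replicates with inverse-variance weights. The logarithm is base 2, and genotypes needed ≥10 input reads and ≥1 read per output to be kept.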
Regarding GACCAAUCUGCCCUCAGAGCUCGAGAACAUCUUCGGAUGCAGAGGAGGCAGGCUUCGGUGGCGCGAUAGCGCCAACGUCCUCAACCUCCAAUGGAUCCCAUCACAUGAUGAUGCCUGAAGAGCCUUGGUUUUUUG [C94G C101U], the “polymerase ribozyme fitness (log ratio)” value is -1.46. As for GACCAAUCUGCCCUCAGAGCUCGAGAACAUCUUCGGAUGCAGAGGAGGCAGGCUUCGGUGGCGCGAUAGCGCCAACGUCCUCAACCUCCAAUGAAUCCCACCACAUGAUGAAGCCUGAAGAGCCUUGGUUUUUUG [C94A U112A], the “polymerase ribozyme fitness (log ratio)” value worked out at 1.02. In the case of GACCAAUCUGCCCUCAGAGCUCGAGAACAUCUUCGGAUGCAGAGGAGGCAGGCUUCGGUGGCGCGAUAGCGCCAACGUCCUCAACCUCCAAUGAAUCCCACCACAUGAUGAUGCCUGAAGAGUCUUGGUUUUUUG [C94A C123U] it was 0.185; in that of GACCAAUCUGCCCUCAGAGCUCGAGAACAUCUUCGGAUGCAGAGGAGGCAGGCUUCGGUGGCGCGAUAGCGCCAACGUCCUCAACCUCCAAUGAAUCCCACCACAUGAUGAUGCCUGAACAGCCUUGGUUUUUUG [C94A G120C], -1.64; in that of GACCAAUCUGCCCUCAGAGCUCGAGAACAUCUUCGGAUGCAGAGGAGGCAGGCUUCGGUGGCGCGAUAGCGCCAACGUCCUCAACCUCCAAUGUAUCCCACCACAUGAUGAUGCCUGAAGAGCCUUGUUUUUUUG [C94U G128U], -1.7. For GACCAAUCUGCCCUCAGAGCUCGAGAACAUCUUCGGAUGCAGAGGAGGCAGGCUUCGGUGGCGCGAUAGCGCCAACGUCCUCAACCUCCAAUGAAUCCCACCACAUGAUAAUGCCUGAAGAGCCUUGGUUUUUUG [C94A G110A], the “polymerase ribozyme fitness (log ratio)” value is -2.19. In the case of GACCAAUCUGCCCUCAGAGCUCGAGAACAUCUUCGGAUGCAGAGGAGGCAGGCUUCGGUGGCGCGAUAGCGCCAACGUCCUCAACCUCCAAUGCGUCCCACCCCAUGAUGAUGCCUGAAUAGCCUUGGUUUUUUU [A95G A103C G120U G135U], the “polymerase ribozyme fitness (log ratio)” value was -6.78.

As to GACCAAUCUGCCCUCAGAGCUCGAGAACAUCUUCGGAUGCAGAGGAGGCAGGCUUCGGUGGCGCGAUAGCGCCAACGUCCUCAACCUCCAAUGUAACCCACCACAUGAUGAUGCCUGAAGAGCCUUGGUUUUUUG [C94U U96A], the “polymerase ribozyme fitness (log ratio)” value was -1.02. In the case of GACCAAUCUGCCCUCAGAGCUCGAGAACAUCUUCGGAUGCAGAGGAGGCAGGCUUCGGUGGCGCGAUAGCGCCAACGUCCUCAACCUCCAAUGCCUCCCACCACAUGAAGACGCCUGAAGAGCCUUGGUUUUUUG [A95C U109A U112C] it was -4.49.

For the variant GACCAAUCUGCCCUCAGAGCUCGAGAACAUCUUCGGAUGCAGAGGAGGCAGGCUUCGGUGGCGCGAUAGCGCCAACGUCCUCAACCUCCAAUGAAUCCCACCACAUGAUGAUGCCUUAAGAGCCUUGGAUUUUUG [C94A G117U U129A], the “polymerase ribozyme fitness (log ratio)” value was -4.44. The same measure for GACCAAUCUGCCCUCAGAGCUCGAGAACAUCUUCGGAUGCAGAGGAGGCAGGCUUCGGUGGCGCGAUAGCGCCAACGUCCUCAACCUCCAAUGCUUCCCACCACAUGAUGAUGACUGAAGAGCCUUGGUUUUUUG [A95U C114A]: -1.43; for GACCAAUCUGCCCUCAGAGCUCGAGAACAUCUUCGGAUGCAGAGGAGGCAGGCUUCGGUGGCGCGAUAGCGCCAACGUCCUCAACCUCCAAUGAAUCCCACCACAUGAUGAUGCUUGAAGAGCCUUGGUUUUUUG [C94A C115U]: -2.44. In the case of GACCAAUCUGCCCUCAGAGCUCGAGAACAUCUUCGGAUGCAGAGGAGGCAGGCUUCGGUGGCGCGAUAGCGCCAACGUCCUCAACCUCCAAUGUAUCCCACCACAUGAUGAUGCCCGAAGAGCCUUGUUUUUUUG [C94U U116C G128U] it was -3.48; in that of GACCAAUCUGCCCUCAGAGCUCGAGAACAUCUUCGGAUGCAGAGGAGGCAGGCUUCGGUGGCGCGAUAGCGCCAACGUCCUCAACCUCCAAUGCCUCCCACCACAUAAUGAUGCCUGAAGAGCCUUGGUUUUUUG [A95C G107A], -7.02; in that of GACCAAUCUGCCCUCAGAGCUCGAGAACAUCUUCGGAUGCAGAGGAGGCAGGCUUCGGUGGCGCGAUAGCGCCAACGUCCUCAACCUCCAAUGAAUCCCACCACAUGAUGAUGCCUGAAGAGCCUUGGUUUUUUU [C94A G135U], -1.66. GACCAAUCUGCCCUCAGAGCUCGAGAACAUCUUCGGAUGCAGAGGAGGCAGGCUUCGGUGGCGCGAUAGCGCCAACGUCCUCAACCUCCAAUGGAUCCCACCACAUGACGAUGCCUGAAGUGCCUUGGUUUUUUG [C94G U109C A121U]: the “polymerase ribozyme fitness (log ratio)” value was -6.64. With GACCAAUCUGCCCUCAGAGCUCGAGAACAUCUUCGGAUGCAGAGGAGGCAGGCUUCGGUGGCGCGAUAGCGCCAACGUCCUCAACCUCCAAUGAAUCCCACCACUUGAUGAUGCCUGAAGCGCCUUGGUUUUUUG [C94A A105U A121C], the “polymerase ribozyme fitness (log ratio)” value was -2.21. Turning to GACCAAUCUGCCCUCAGAGCUCGAGAACAUCUUCGGAUGCAGAGGAGGCAGGCUUCGGUGGCGCGAUAGCGCCAACGUCCUCAACCUCCAAUGGAUCCCACCACAUGAUGAUGCCUGAAGAGAAUUGGUUUUUUG [C94G C123A C124A], the “polymerase ribozyme fitness (log ratio)” value stood at 1.47. The same measure for GACCAAUCUGCCCUCAGAGCUCGAGAACAUCUUCGGAUGCAGAGGAGGCAGGCUUCGGUGGCGCGAUAGCGCCAACGUCCUCAACCUCCAAUGAAUCCCACCACAUGAUGUUGCCUGAAGAGCCUUGGUUUUUUG [C94A A111U]: -0.728. Consider GACCAAUCUGCCCUCAGAGCUCGAGAACAUCUUCGGAUGCAGAGGAGGCAGGCUUCGGUGGCGCGAUAGCGCCAACGUCCUCAACCUCCAAUGUAUCCCACCACAUGAUUAUGCCUGAAGAGCCUUGGUUUUUUG [C94U G110U], for which the “polymerase ribozyme fitness (log ratio)” value was -2.05. As to GACCAAUCUGCCCUCAGAGCUCGAGAACAUCUUCGGAUGCAGAGGAGGCAGGCUUCGGUGGCGCGAUAGCGCCAACGUCCUCAACCUCCAAUGCCUCCCACCACAUGAAGAUGCCUGAAGAGCCUUGGUUUUUUG [A95C U109A], the “polymerase ribozyme fitness (log ratio)” value is -7.08.
